Target: T1, recombinant human CD40 (human, UniProt P25942 21-120, limits assumed)
T1 construct: biotinylated there; also called hCD40; purified CD40
Assay: binding kinetics to human CD40

T1 sequence (P25942 21-120 limits assumed): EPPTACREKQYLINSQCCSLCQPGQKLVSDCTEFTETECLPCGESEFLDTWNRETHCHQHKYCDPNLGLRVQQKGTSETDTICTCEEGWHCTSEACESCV

B1: humanized 2C10 antibody, Clone 2.189.2 (2C10_h3 + 2C10_l2) (antibody, V domains shown)
VH: QVQLVQSGAEVKKPGASVKVSCKASGYTFTNYWMHWVRQAPGQRLEWIGYINPSNDYTKYNQKFKDRATLTADKSANTAYMELSSLRSEDTAVYYCARQGFPYWGQGTLVTVSS
VL: EIVLTQSPATLSLSPGERATLSCSASSSVSYMHWYQQKPGQAPRRWIYDTSKLASGVPARFSGSGSGTDYTLTISSLEPEDFAVYYCHQLSSDPFTFGGGTKVEIK
notes: also called h2C10; mAb 2.189.2
- fold difference of affinity against murine 2C10: ≤ 2 fold
